The nature of this data set: label from the status in PepcDB records.

As for “VSGFQRLQKPVVSQPDFRRQPVSETMQVYLKQAADPGRDVGLYWMATDFENRRFPGKVSPSGFQKLYRQWRNQTGWDAYVQSCRAIWNDVKYFPIPQSLDDTEDKISYVDSWMFERNYGGKRGHEGTDIMAEKNTPGYYPVVSMTDGVVTEKGWLEKGGWRIGITAPTGAYFYYAHLDSYAELEKGDPVKAGDLLGYMGDSGYGEEGTTGEFPVHLHLGIYLKEGTEEISVNPYPVLRYAENARIKCVYSR”, the protein production result is “not failed”.

For “VSVGTHPTFENSPSGTVLTSPPDGSAVDRATDAARRVVDALLRTDRGNANLERVAEELNSIAGHLEEHAPAVAERLIDMWNGEGVTRHDPVTGPENALAPPVVLEGLSDGSVRGTVTLTIPYQGPPGHVHGGVSALLLDHVLGVANAWGGKAGMTAQLSTRYHRPTPLFEPLTLTGKLMSVDGRKITTAGDIRTADGQVCVSVEGLFVDKTVPRPR”, the protein production entry is on record as “not failed”.

Turning to “VTDILREIGMIARALDSISNIEFKELSLTRGQYLYLVRVCENPGIIQEKIAELIKVDRTTAARAIKRLEEQGFIYRQEDASNKKIKRIYATEKGKNVYPIIVRENQHSNQVALQGLSEVEISQLADYLVRMRKNVSEDWEFVKKGNTRNY”, the protein production entry is recorded as “not failed”.

In the case of “VTIDNIQKTVAEYYKIKVADLLSKRRSRSVARPRQXAXALAKELTNHSLPEIGDAFGGRDHTTVLHACRKIEQLREESHDIKEDFSNLIRTLSS”, the protein production entry is listed as “not failed”.

With “VTRRIAICAPSTPFTREDSARVIALAAAEFPDLSLSFHEQCFASEGHFAGSDALRLSAFLECANDDAFEAVWFVRGGYGANRIAEDALARLGRAASAKQYLGYSDAGTLLAALYAHRIGRSVHAPMPVDIRRPEGESAVRRTLGWLAGAREGLEPTLGAGAPAVAFNLMTLAMLCGTRLLPDLSGHVVMIEEVAEHHYAVDRLLFHVTSCLADAGIAGLRLGRVSDVPENDRPFGCSVEEMARHWCHRAGIAFLGTADIGHDVDNRIVPFGLA”, the protein production entry is reported as “not failed”.

Turning to “VVAPITTGYTVKISNYGWDQSDKFVKIYITLTGVHQVPTENVQVHFTERSFDLLVKNLNGKSYSMIVNNLLKPISVEGSSKKVKTDTVLILCRKKVENTRWDYLTQVEKECKEK”, the protein production entry was “not failed”.

Regarding “VVFFRHLVSDDGSVRHTGDNLVGGVGQGGDDEAILVDLQRVPVHIDQIVFTVNSFTGQTFQEVQNAFCRLVDETNGQELARYTLAGGGAFTAQIMAKVHRAGQGWSMTAIGTPANGRTFQDLMPAILPVL”, the protein production entry is recorded as “failed”.

On to “VVKVALFVRLEAKPGKEKEVESFLMGGLPIVNEEPATTAWFGIRLGPSTFGIFDAFPNEAGRQAHLSGKVAAALMAKAGELFSEPPSIEKVDILAAKLPG”, for which the protein production result is “failed”.

On to “VYPLELTLEEIFHGCLKKVAHKRKVLLFSGEYVEEERQLTVDVKPGLPTGTRFVFEGEGNKTPKKEPGPVVFVLKPKPHPRFVRRGSDLVHKVTLPLHHALIGTTLDIRTLDDRDLKVPISDIMRPGSSLTVPGEGMPLPATPSARGNLVIEIDLLFPTHLTETQKMLLRSAF”, for which the protein production result was “not failed”.

As to “WERLRMLLEVCQFSRDASVAEAWLIAQEPYLASGDFGHTVDSVEKLIKRHEAFEKSTASWAERFAALEKPTTLELKERQIA”, the protein production result is reported as “failed”.

Consider “WGLSVERSTYFLAPADRHYLADYARQAEDAWRREGAAGAERFRKELSAKEDTWVALVGPHLESLGSTPLSAEESSHLTFMRKLDWPMSRRLQDELPYVSIEFPGHPEQGRLVIQLPERLLPG”, for which the protein production entry is “not failed”.

For “WILWSLTKISNHQEINEIIDQILQLTSDVFAADYTSVSFINNQQIARTISYYKFGKKEENISFSLINTPCAKVIQTKAICYFNDVQKQFPNDKLLKKMKINTYLAGPITNTQDEVIGIMTILCKRKVEFDTLNNTLFGLFLSRINSEIERLINLRKLE”, the protein production result is listed as “failed”.

For the sequence “WKTGGRFLTLGVTLIMFIIVSNFLGLPFMYSATEAGEHIAWWRSPTSDPAVTLTLAVMVVTLTHYYGIKMKGTKEYVKGYFQPMKFLFPLKVIEEFANTLTLGLRLFGNIYAGEILLGLLAKLGGASFLGALGALVPMLAWMGFSVFVGSIQAFIFVMLTMVYMAHKVSHDH”, the protein production result was “failed”.

For the sequence “WTGEDSAEPNSDSAEWIRDMYAKVTEIWQEVMQRRDDDGTLHAACQVQPSATLDAAQPRVTGVVLFRQLAPRAKLDAFFALEGFP”, the protein production entry was “failed”.

“WVSNIDPAETFRHTELHVVKSVYDGLLTQNSNGGIEPALAHEWKMEENVMTLWLRPGIFRHDGELLSIDDVVWSLERLKQIKGPVYELWQCIETVTAETPNCLKIVLKRANQFFPYMLATPHASILCRDTASFGSGYSYHIGTGPFRISSWN”: the protein production entry is “failed”.

With “YAHLRAGALRRLLQAQRLLPTGVRFLVLEGYRPPQLQRRYFEEYAATMRAAHPDEAPDRIRELTSAYISPPEVAPHVSGGAVDLTLCGADGTELPLGTEVNATPEESEGACRTAAPNISVEARANRAVMDRALTAVGFVNYPTEWWHWSYGDR”, the protein production entry is recorded as “failed”.

As to “YCVRGEKLVLFVTGVCPRNCFYCPLSPWRRKDVAYANERPIRKIEDIIEEAKIQEARGAGVTGGDPLARLNRTVEYIRTLKEEFGKKFHIHLYTTGILADKRALSMLYDAGL”, the protein production entry is “failed”.

“YESIDLKAVLFDMDGVLFDSMPNHAESWHKIMKRFGFGLSREEAYMHEGRTGASTINIVSRRERGHDATEEEIKAIYQAKTEEFNKCPKAERMPGALEVLTKIKSEGLTPMVVTGSGQTSLLDRLNHNFPGIFQANLMVTAFDVKYGKPNPEPYLMALKKGGFKPNEALVIENAPLGVQAGVAAGIFTIAVNTGPLHDNVLLNEGANLLFHSMPDFNKNWETLQSALKQ”: the protein production entry was “failed”.

Regarding “YGDINLNLLKDKGYTTLQDEAIKIFNSLQQLESMSDPIPIIQGILQTGHDLRPLRDELYCQLIKQTNKVPHPGSVGNLYSWQILTCLSCTFLPSRGILKYLKFHLKRIREQFPGTEMEKYALFTYESLKKTKCREFVPSRDEIEALIHRQEMTSTVYCHGGGSCKITINSHTTAGEVVEKLIRGLAMEDSRNMFALFEYNGHVDKAIESRTVVADVLAKFEKLAATSEVGDLPWKFYFKLYCFLDTDNVPKDSVEFAFMFEQAHEAVIHGHHPAPEENLQVLAALRLQYLQGDYTLHAAIPPLEEVYSLQRLKARISQSTKTFTPCERLEKRRTSFLEGTLRRSFRTGSVVRQKVEEEQMLDMWIKEEVSSARASIIDKWRKFQGMNQEQAMAKYMALIKEWPGYGSTLFDVECKEGGFPQELWLGVSADAVSVYKRGEGRPLEVFQYEHILSFGAPLANTYKIVVDERELLFETSEVVDVAKLMKAYISMIVKKRYSTTRSASSQGSSR”, the protein production result was “failed”.

Take “YLELNEIESIIKDINTKAQKMHSGIHKRFYLFVALMTEFQALNGMRIGEMLAIQNEDIDFDNKSLNINGTIHWFHDESGGFGVKDTTKTESSYRTIGLSSRSCEILKKAILENKKDSKWNDGYLNRNFVFTNHKGNPMQTERFNKILREAAKDVGIDKEVSSHILRHSHISLLSQQGVSLKAIMDRVGHSDHRTTLSIYSHVTEQMDKDMMNKLEQVKLG”: the protein production result was “not failed”.

With “YLKVFDLDWHPDGMLDAKPALASADWKGLAELAQLSHKALEDAGLPQFEGSNAWAISGSRTQSGKPILAGDPHIRFSVPSVWYEAQLSAPGFELYGHFPALNPFAFLGHNMDFGWSLTMFQNDDVDLIAEKTNPDNPNQVWYHGQWVDMKRTEQQIAVKGQAPVTLTLIESPHGPIVNNVMGKNAGQTPIAMWWSFLVSANPVLDGFYDANRADTLDKMRSAAEKIQSPGLNIVWANAKGDIGWWAAAQLPIRPEGVNPGFILDGSTAQADKLGFYPFSANPHEENPARGYIVSANFQPLSPTGMQIPGYYNPAERGQELNRQLSDSSIKWDLAASKALQLSTQTDYAPSILRPLIPVLRSAISDPDELALVERLASWKGDYPVDSVGATLFN”, the protein production entry is on record as “failed”.

Consider “YMVPGLWGAPLKAVSAFAPPMKTQDFNLYTNEVHAKFDDYDLGMEYARQHNKPVMLDFTGYGCVNCRKMELAVWTDPKVSSIINNDYVLITLYVDNKTPLTEPVKIMENGTERTLRTVGDKWSYLQRVKFGANAQPFYVLIDNEGNPLNKSYAYDEDISKYINFLQTGLENYRKEK”, for which the protein production entry was “failed”.
